In paper PMC12289918 (Nature Communications, 2025):

Molecular target: T1, K11-HTS-Tail (KLP-11 residues 537-782) (Caenorhabditis elegans, UniProt Q19633 537-782)
T1 sequence (looked up): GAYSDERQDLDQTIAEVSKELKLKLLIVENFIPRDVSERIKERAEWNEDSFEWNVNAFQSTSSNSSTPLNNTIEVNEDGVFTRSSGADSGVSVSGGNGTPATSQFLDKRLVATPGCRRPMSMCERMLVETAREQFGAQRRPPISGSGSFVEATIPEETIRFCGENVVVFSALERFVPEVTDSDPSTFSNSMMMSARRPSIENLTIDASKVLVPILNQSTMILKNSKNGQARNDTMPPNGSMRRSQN
Experiment: SEC-MALS

stoichiometry N: 1
B1: K20-HTS-Tail (KLP-20 residues 527-646) (domain or fragment, Caenorhabditis elegans, UniProt Q965T6 527-646, looked up)
chain: EDHQRQVEAMLDDIRQLRKELLLNIAIIDEYIPVEHVELIEKYVSWSEEHGDWQLKAIAYTGNNMRASAPPAKKEFSNNNQTVPMYYSYRADLGASTAEHRPRTSSKKHRASIRLQQLLT
